B1: brome mosaic virus (BMV) capsid protein, wild type (natural protein)
chain: STSGTGKMTRAQRRAAARRNRWTARVQPVIVEPLAAGQGKAIKAIAGYSISKWEASSDAITAKATNAMSITLPHELSSEKNKELKVGRVLLWLGLLPSVAGRIKACVAEKQAQAEAAFQVALAVADSSKEVVAAMYTDAFRGATLGDLLNLQIYLYASEAVPAKAVVVHLEVEHVRPTFDDFFTPVYR
B2: brome mosaic virus (BMV) capsid protein R142A (natural protein)
chain: STSGTGKMTRAQRRAAARRNRWTARVQPVIVEPLAAGQGKAIKAIAGYSISKWEASSDAITAKATNAMSITLPHELSSEKNKELKVGRVLLWLGLLPSVAGRIKACVAEKQAQAEAAFQVALAVADSSKEVVAAMYTDAFAGATLGDLLNLQIYLYASEAVPAKAVVVHLEVEHVRPTFDDFFTPVYR
B3: brome mosaic virus (BMV) capsid protein D148A (natural protein)
chain: STSGTGKMTRAQRRAAARRNRWTARVQPVIVEPLAAGQGKAIKAIAGYSISKWEASSDAITAKATNAMSITLPHELSSEKNKELKVGRVLLWLGLLPSVAGRIKACVAEKQAQAEAAFQVALAVADSSKEVVAAMYTDAFRGATLGALLNLQIYLYASEAVPAKAVVVHLEVEHVRPTFDDFFTPVYR

Biological target: the molecule itself
B1: binds.
B2: binds.
B3: binds.
